Reference: patent US20250043302A1, “MUTATED HYDROXYPHENYLPYRUVATE DIOXYGENASE POLYPEPTIDE, AND CODING GENE AND USE THEREOF” (BEIJING DABEINONG BIOTECHNOLOGY CO., LTD., priority 2021, published 2025)

Legend:
Assay type in all cases: in vivo
[1] = system: Arabidopsis thaliana T1 plants; assay: Mesotrione tolerance of transgenic Arabidopsis thaliana T1 plants (spray, bleached leaf area grade, damage score); design: Scores: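 damage score 0-100 computed as Σ(N×S)/(T×M)×100 over grades 0-3 with higher meaning more damage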; details: Arabidopsis thaliana T1 plants; for Grade 0 (classification and statistics of the grade of pesticide damage; number of plants) / Grade 1 (classification and statistics of the grade of pesticide damage; number of plants) / Grade 2 (classification and statistics of the grade of pesticide damage; number of plants) / Grade 3 (classification and statistics of the grade of pesticide damage; number of plants): 16 plants
Outline: (§1)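 Read-out: per-plant damage grade 0–3 from proportion of bleached leaf area at 7 DAT (1 <50%, 2 >50%, 3 100%). Plants were T1 transformants, glufosinate-selected, plus wild-type CK, sprayed 18 days post-sowing. Rates: topramezone 25–200, isoxaflutole 35–280, mesotrione 52.5–420 g ai/ha.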

[2] = system: Arabidopsis thaliana T1 plants; assay: Topramezone tolerance of transgenic Arabidopsis thaliana T1 plants (spray, bleached leaf area grade, damage score); details: 7 DAT, Table 4; for Classification and statistics of the grade of pesticide damage: Grade 0 / Classification and statistics of the grade of pesticide damage: Grade 1 / Classification and statistics of the grade of pesticide damage: Grade 2 / Classification and statistics of the grade of pesticide damage: Grade 3: number of plants; for Scores: pesticide damage score 0-100
Outline: as §1

[3] = system: Arabidopsis thaliana T1 plants; assay: Isoxaflutole tolerance of transgenic Arabidopsis thaliana T1 plants (spray, bleached leaf area grade, damage score); design: Scores (pesticide damage): scale not given here; details: spray, Arabidopsis thaliana T1 plants; for Classification and statistics of the grade of pesticide damage: Grade 0 (number of plants) / Classification and statistics of the grade of pesticide damage: Grade 1 (number of plants) / Classification and statistics of the grade of pesticide damage: Grade 2 (number of plants) / Classification and statistics of the grade of pesticide damage: Grade 3 (number of plants): 16 plants
Outline: as §1

[4] = isoxaflutole 35 g ai/ha (0.5x field concentration)
[5] = isoxaflutole 70 g ai/ha (1x field concentration)

B1: GmHPPD-02: nucleotide sequence encoding wild-type Glycine max HPPD; vector DBN11746 (nucleic acid)
DNA: ATGCCAATGTACACACCATCGCTCTCCGCCCCTTCTTCCAACCATATTCAGCCATCCGTGACTCTGCCTCTCTACATCACAACCACCAAGTTGAACCTGAAGCAGCAGCACCATACGACTCCTATGCCTATACCCATGTGCAATGAGATCCAAGCACAGGCTCAGGCACAAGCTCAACCCGGATTCAAACTCGTGGGATTCAAGAACTTCGTCCGTACCAATCCAAAATCTGACCGCTTCCAGGTGAACAGATTCCACCACATAGAGTTTTGGTGTACTGATGCAACGAATGCTTCGAGGAGGTTTTCATGGGGCTTAGGCATGCCGATTGTAGCAAAGTCAGACCTTTCTACAGGGAACCAAATTCATGCAAGCTATCTGCTCCGCTCAGGTGATTTGTCTTTCTTGTTCTCAGCTCCATATTCTCCATCATTATCTGCTGGGTCATCAGCAGCATCTAGTGCGTCGATCCCTAGCTTTGATGCCGCCACCTGCCTCGCCTTCGCCGCCAAACATGGATTTGGTGTTCGCGCCATTGCTCTTGAGGTTGCCGATGCCGAGGCTGCTTTTAGCGCCTCCGTCGCCAAGGGAGCTGAGCCTGCGTCACCTCCTGTTCTTGTTGATGATCGAACTGGTTTTGCTGAAGTGCGTCTTTACGGCGACGTGGTGCTCAGATATGTTAGTTACAAGGATGCTGCTCCTCAAGCGCCGCACGCTGATCCTTCAAGATGGTTTCTTCCGGGGTTTGAGGCCGCTGCTAGTTCATCTTCCTTCCCGGAGTTGGATTACGGCATACGGCGGCTTGACCATGCTGTCGGCAATGTTCCTGAGCTTGCTCCGGCGGTACGGTACTTGAAAGGTTTCTCCGGGTTCCATGAATTTGCAGAGTTCACGGCGGAAGATGTTGGAACAAGTGAAAGCGGATTGAATTCTGTTGTTTTGGCCAACAACAGTGAAACTGTTCTGCTCCCCCTCAATGAACCAGTTTATGGCACAAAGCGCAAGAGCCAGATTGAAACATATCTCGAGCACAATGAAGGCGCCGGCGTCCAGCATCTTGCTTTGGTGACTCATGATATCTTCACAACACTTAGGGAGATGAGGAAGAGGAGTTTCCTCGGCGGGTTTGAATTCATGCCCAGTCCCCCGCCGACCTACTATGCAAATCTGCACAACAGGGCTGCAGATGTGCTGACTGTAGACCAGATCAAGCAATGTGAAGAACTTGGAATTTTAGTGGATAGAGACGACCAAGGTACACTACTTCAAATATTCACCAAACCAGTCGGTGACAGACCAACAATTTTCATCGAGATTATACAAAGAATTGGATGCATGGTCGAGGATGAAGAAGGGAAGGTGTACCAGAAGGGAGCATGTGGTGGTTTTGGGAAAGGAAATTTTTCTGAGCTGTTTAAATCCATCGAGGAATATGAGAAAACCTTAGAAGCTAAAAGAACTGCATGA
modifications: GmHPPD-02 Nucleotide Sequence
notes: vector DBN11746
Resistance evaluation ([1]; mesotrione 52.5 g ai/ha): Non-resistant
Scores ([1]; mesotrione 52.5 g ai/ha): 100
Grade 0 (classification and statistics of the grade of pesticide damage; number of plants) ([1]; mesotrione 52.5 g ai/ha): 0
Grade 1 (classification and statistics of the grade of pesticide damage; number of plants) ([1]; mesotrione 52.5 g ai/ha): 0
Grade 2 (classification and statistics of the grade of pesticide damage; number of plants) ([1]; mesotrione 52.5 g ai/ha): 0
Grade 3 (classification and statistics of the grade of pesticide damage; number of plants) ([1]; mesotrione 52.5 g ai/ha): 16
Resistance evaluation ([1]; mesotrione 105 g ai/ha): Non-resistant
Scores ([1]; mesotrione 105 g ai/ha): 100
Grade 0 (classification and statistics of the grade of pesticide damage; number of plants) ([1]; mesotrione 105 g ai/ha): 0
Grade 1 (classification and statistics of the grade of pesticide damage; number of plants) ([1]; mesotrione 105 g ai/ha): 0
Grade 2 (classification and statistics of the grade of pesticide damage; number of plants) ([1]; mesotrione 105 g ai/ha): 0
Grade 3 (classification and statistics of the grade of pesticide damage; number of plants) ([1]; mesotrione 105 g ai/ha): 16
Classification and statistics of the grade of pesticide damage: Grade 0 ([2]; topramezone 25 g ai/ha (1×)): 0
Classification and statistics of the grade of pesticide damage: Grade 1 ([2]; topramezone 25 g ai/ha (1×)): 0
Classification and statistics of the grade of pesticide damage: Grade 2 ([2]; topramezone 25 g ai/ha (1×)): 0
Classification and statistics of the grade of pesticide damage: Grade 3 ([2]; topramezone 25 g ai/ha (1×)): 16
Classification and statistics of the grade of pesticide damage: Grade 0 ([2]; topramezone 100 g ai/ha (4×)): 0
Classification and statistics of the grade of pesticide damage: Grade 1 ([2]; topramezone 100 g ai/ha (4×)): 0
Classification and statistics of the grade of pesticide damage: Grade 2 ([2]; topramezone 100 g ai/ha (4×)): 0
Classification and statistics of the grade of pesticide damage: Grade 3 ([2]; topramezone 100 g ai/ha (4×)): 16
Scores ([2]; topramezone 25 g ai/ha (1×)): 100
Scores ([2]; topramezone 100 g ai/ha (4×)): 100
Resistance evaluation ([2]; topramezone 25 g ai/ha (1×)): non-resistant (non-resistant plants (scores 68-100))
Resistance evaluation ([2]; topramezone 100 g ai/ha (4×)): non-resistant (non-resistant plants (scores 68-100))
Resistance evaluation [3, 4]: Non-resistant
Scores (pesticide damage) [3, 4]: 100
Classification and statistics of the grade of pesticide damage: Grade 0 (number of plants) [3, 4]: 0
Classification and statistics of the grade of pesticide damage: Grade 1 (number of plants) [3, 4]: 0
Classification and statistics of the grade of pesticide damage: Grade 2 (number of plants) [3, 4]: 0
Classification and statistics of the grade of pesticide damage: Grade 3 (number of plants) [3, 4]: 16
Resistance evaluation [3, 5]: Non-resistant
Scores (pesticide damage) [3, 5]: 100
Classification and statistics of the grade of pesticide damage: Grade 0 (number of plants) [3, 5]: 0
Classification and statistics of the grade of pesticide damage: Grade 1 (number of plants) [3, 5]: 0
Classification and statistics of the grade of pesticide damage: Grade 2 (number of plants) [3, 5]: 0
Classification and statistics of the grade of pesticide damage: Grade 3 (number of plants) [3, 5]: 16
